Measured values taken from publication PMC10757926, “Two birds with one stone: human SIRPα nanobodies for functional modulation and in vivo imaging of myeloid cells” (Frontiers in Immunology, 2023).

B1: hSIRPα Nb S44 (VHH)
VHH: QVQLQESGGGLVQPGGSLRLACAASGFTFSSYDMSWVRQAPGKGLEWVSDIKSGGGRTYYADSVKGRFTISRDNAKNTVYLQMNSLKPEDTAVYYCGSLDNSGAYTGGGQGSQVTVSS
notes: selected against domain 1 of hSIRPα; source: E. coli XL-1, purified (IMAC, SEC); not shown: His tag (from the IMAC purification)
B2: hSIRPα Nb S7 (VHH)
VHH: HVQLVESGGGLVQVGDSLRLSCAPSGRTFRAYAMAWFRQAPGKEREFVAAIRWIGGTPSYKDSVKGRFTISRDNARNTFYLQMNSLEPQDTGVYYCAAEETQKGSGLGHDGRHYDYWGQGTPVTVSS
notes: selected against the entire extracellular portion of hSIRPα; source: E. coli XL-1, purified (IMAC, SEC); not shown: His tag (from the IMAC purification)
B3: hSIRPα Nb S8 (VHH)
VHH: QVQLVESGGGLVQPGGSLRLSCADSEFRLDEYATGWFRQAPGKEREGVACISRSGSNTKYTDSVKGRFTISRDNAKKTVYLQMNSLKPEDTAVYYCAADLTSHYLSCSSYTDYNSWGQGTQVTVSS
notes: as for B2
B4: hSIRPα Nb S12 (VHH)
VHH: QVQLVESGGGLVQPGGSLRLSCLVSGFSSSYYAIGWFRQAPGKEREGVSCITRSGDTTNYADSVKGRFTISRDDARNTVYLQMNSLKTEDTAVYSCALWAWAGSGRLRCTASEYGHWGQGTQVTVSS
notes: as for B2
B5: hSIRPα Nb S43 (VHH)
VHH: HVQLVESGGGLVQPGGSARLSCAASGFDLDYFAIGWFRQAPGKEREGVSCISTRSETTNYVDSVKGRFTISRDNAISTVYLQMNNLKPEDTAVYYCAADWADWTMTGCQMTWDDYNYWGQGAQVTVSS
notes: as for B1
B6: hSIRPα Nb S29 (VHH)
VHH: EVQLVESGGGLVQPGGSLRLSCAASGFTSETYAIGWFRQAPGKEREGVSCISNDGGSRNYADSVKGRFTISRDNAKNTSYLQMNSLKPEDTAVYYCAAGKYYYCLGYVSDGMDYWGKGTPVTVSS
notes: as for B2
B7: hSIRPα Nb S21 (VHH)
VHH: DVQLVESGGGLVQPGGSLTLSCAASGFTSGTYALAYFRQAPGKEREGVSCISNDGGSRNYADSVKGRFTISRDNAKNTMYLQMNSLKPEDTAVYYCAAGPWYYCSDFARRPDGMDYWGKGTPVTVSS
notes: as for B2
B8: hSIRPα Nb S17 (VHH)
VHH: QVQLVESGGGLVQPGGSLRLSCAASGFTLDSYVIGWFRQAPGKEREGVSCISQRIGSTDYADSVKGRFTISKDNAKNTAYLQMNALKPEDTAVYYCAAGRLYYSGTYCPQGGMSYWGKGSPVTVSS
notes: as for B2
B9: hSIRPα Nb S41 (VHH)
VHH: HVQLVESGGGLVQPGGSLRLSCAASGETLDYYAIGYVRQAPGKEREGVSCISSRGDNTNYADSVKGRFTISRDNANNTVYLQMNSLKPEDTAVYYCVAIKDSWQNYYCSVGWVEYDVWGQGTQVTVSS
notes: as for B1
B10: hSIRPα Nb S45 (VHH)
VHH: HVQLVESGGGLVQPGGSLRLSCAARGFSFRDSAMSWARQAPGKGLEWVGAIYSDGSTVYEKSVKGRFTISRDNAKNTMYLQMHSLKPEDSARYYCAPKGVVADEGDYSGQGTLVTVSS
notes: as for B1
B11: hSIRPα Nb S33 (VHH)
VHH: EVQLVESGGGLVQPGGSLRLSCTTSGFTLDYYSVGWFRQAPGKEREGVSCITASGSSTNYANSVKGRFTISRDKVKNTVYLQMSSLKPEDTAVYYCAAEPCTVVAGILQAPTSDFGSWGQGTQVTVSS
notes: as for B2
B12: hSIRPα Nb S42 (VHH)
VHH: HVQLVESGGGLVQPGGSLRLSCAASGFIFSGYAMSWVRQAPGKGLEWVSDISSDGVRLYYADSVKGRFTISRDNAKNTVYLEMTSLKPDDTALYYCATSSDPQLGLDLWGKGTPVTVSS
notes: as for B1
B13: hSIRPα Nb S14 (VHH)
VHH: EVQLVESGGGLVQPGGSLRLSCAASGFTANSYRMTWVRQAPGKGLEWVADIGTGNEWKYYPDSVKGRFTISRDAAKNTVYLQMNSLKPEDTAVYYCAKNGAVWYGEDGLDYWGKGTLVTVSS
notes: as for B2
B14: hSIRPα-S36K>R Nb (VHH)
VHH: EVQLVESGGGLVQPGGSLRLSCAASGFTLDYYAIGWFRQVPGREREGVSCISSDGGGNTYYADSVRGRFTISRDNARNTVYLQMNSLRPEDSAVYSCAAGPTYYSGSYCRDPHSDYDYWGQGTQVTVSS
notes: as the VHH of m9 (S36); source: E. coli, purified

These binders were tested against T1, hSIRPα domain 3 displayed on U2OS cells (Homo sapiens, UniProt P78324) (assay: immunostaining of cells or tissue; live-cell immunofluorescence on U2OS cells expressing the target; unlabeled Nbs (1 nM to 100 nM) with Cy5-labeled anti-VHH, 1 h at 37°C). Details: one partner purified.
T1 construct: signal-regulatory protein α (SIRPα), human, domain 3; also called hSIRPαD3; D3; source: U2OS, transiently expressing, on live cells
T1 sequence (P78324 whole entry, looked up, tested part not stated): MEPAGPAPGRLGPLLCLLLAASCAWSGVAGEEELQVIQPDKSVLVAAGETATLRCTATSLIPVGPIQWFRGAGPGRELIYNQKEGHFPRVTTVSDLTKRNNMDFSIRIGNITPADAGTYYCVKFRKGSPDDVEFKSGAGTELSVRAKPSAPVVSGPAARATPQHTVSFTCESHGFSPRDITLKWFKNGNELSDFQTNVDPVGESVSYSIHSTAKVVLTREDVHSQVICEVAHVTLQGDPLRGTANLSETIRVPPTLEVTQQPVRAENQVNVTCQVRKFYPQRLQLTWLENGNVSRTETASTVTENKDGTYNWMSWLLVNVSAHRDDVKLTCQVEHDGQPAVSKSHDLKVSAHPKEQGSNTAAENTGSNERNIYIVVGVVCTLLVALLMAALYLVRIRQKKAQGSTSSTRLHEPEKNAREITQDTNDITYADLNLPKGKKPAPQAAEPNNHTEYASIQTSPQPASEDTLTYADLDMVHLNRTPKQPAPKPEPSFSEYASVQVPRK

Row | binding result | Binder
1 | no binding (tested: Nbs 1 nM to 100 nM) | B1
2 | binds | B2
3 | no binding (tested: Nbs 1 nM to 100 nM) | B3
4 | no binding (tested: Nbs 1 nM to 100 nM) | B4
5 | no binding (tested: Nbs 1 nM to 100 nM) | B5
6 | no binding (tested: Nbs 1 nM to 100 nM) | B6
7 | no binding (tested: Nbs 1 nM to 100 nM) | B7
8 | no binding (tested: Nbs 1 nM to 100 nM) | B8
9 | no binding (tested: Nbs 1 nM to 100 nM) | B9
10 | no binding (tested: Nbs 1 nM to 100 nM) | B10
11 | no binding (tested: Nbs 1 nM to 100 nM) | B11
12 | no binding (tested: Nbs 1 nM to 100 nM) | B12
13 | no binding (tested: Nbs 1 nM to 100 nM) | B13

Each binder was assayed against T2, hSIRPγ displayed on U2OS cells (Homo sapiens, UniProt Q9P1W8) in the same assay as above. Details: one partner purified.
T2 construct: signal-regulatory protein γ (SIRPγ), human; also called hSIRPy; source: U2OS, transiently expressing, on live cells
T2 sequence (Q9P1W8 29-387): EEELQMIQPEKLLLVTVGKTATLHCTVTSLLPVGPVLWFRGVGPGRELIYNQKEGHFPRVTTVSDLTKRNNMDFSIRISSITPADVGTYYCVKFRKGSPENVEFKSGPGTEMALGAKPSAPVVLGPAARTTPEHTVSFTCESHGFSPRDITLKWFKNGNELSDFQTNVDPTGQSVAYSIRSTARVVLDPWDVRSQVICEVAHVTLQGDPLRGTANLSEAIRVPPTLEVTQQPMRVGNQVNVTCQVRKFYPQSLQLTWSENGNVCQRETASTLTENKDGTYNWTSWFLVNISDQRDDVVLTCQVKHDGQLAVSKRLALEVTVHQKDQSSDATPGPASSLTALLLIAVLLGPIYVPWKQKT

Row | binding result | Binder
14 | binds | B1
15 | binds | B3
16 | binds | B4
17 | no binding (tested: Nbs 1 nM to 100 nM) | B10

The binders below were run against T3, murine SIRPα displayed on U2OS cells (Mus musculus, UniProt P97797) in the same assay as above. Details: one partner purified.
T3 construct: signal-regulatory protein α (SIRPα), mouse; also called mouse SIRPα; source: U2OS, transiently expressing, on live cells
T3 sequence (P97797 32-513): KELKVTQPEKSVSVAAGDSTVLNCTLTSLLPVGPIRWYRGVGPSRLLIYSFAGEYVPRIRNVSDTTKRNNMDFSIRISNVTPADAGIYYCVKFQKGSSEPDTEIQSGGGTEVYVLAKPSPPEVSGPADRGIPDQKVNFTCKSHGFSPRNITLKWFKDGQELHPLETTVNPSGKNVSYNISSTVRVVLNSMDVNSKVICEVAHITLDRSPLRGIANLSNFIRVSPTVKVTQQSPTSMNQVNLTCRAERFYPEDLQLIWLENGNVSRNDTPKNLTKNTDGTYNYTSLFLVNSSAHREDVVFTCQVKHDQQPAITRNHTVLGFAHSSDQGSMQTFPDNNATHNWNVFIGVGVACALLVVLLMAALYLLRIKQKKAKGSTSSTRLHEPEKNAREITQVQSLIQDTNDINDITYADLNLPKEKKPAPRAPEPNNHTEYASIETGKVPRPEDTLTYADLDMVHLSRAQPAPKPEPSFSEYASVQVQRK

Row | binding result | Binder
18 | no binding (tested: Nbs 1 nM to 100 nM) | B1
19 | no binding (tested: Nbs 1 nM to 100 nM) | B2
20 | no binding (tested: Nbs 1 nM to 100 nM) | B3
21 | no binding (tested: Nbs 1 nM to 100 nM) | B4
22 | no binding (tested: Nbs 1 nM to 100 nM) | B9
23 | no binding (tested: Nbs 1 nM to 100 nM) | B10
24 | no binding (tested: Nbs 1 nM to 100 nM) | B11

What follows are binders tested against T4, hSIRPα-V1 displayed on U2OS cells (Homo sapiens, allele V1, UniProt P78324) in the same assay as above. Details: one partner purified.
T4 construct: signal-regulatory protein α (SIRPα), human, allelic variant V1; also called hSIRPα variant V1; source: U2OS, transiently expressing, on live cells
T4 sequence (P78324 31-504): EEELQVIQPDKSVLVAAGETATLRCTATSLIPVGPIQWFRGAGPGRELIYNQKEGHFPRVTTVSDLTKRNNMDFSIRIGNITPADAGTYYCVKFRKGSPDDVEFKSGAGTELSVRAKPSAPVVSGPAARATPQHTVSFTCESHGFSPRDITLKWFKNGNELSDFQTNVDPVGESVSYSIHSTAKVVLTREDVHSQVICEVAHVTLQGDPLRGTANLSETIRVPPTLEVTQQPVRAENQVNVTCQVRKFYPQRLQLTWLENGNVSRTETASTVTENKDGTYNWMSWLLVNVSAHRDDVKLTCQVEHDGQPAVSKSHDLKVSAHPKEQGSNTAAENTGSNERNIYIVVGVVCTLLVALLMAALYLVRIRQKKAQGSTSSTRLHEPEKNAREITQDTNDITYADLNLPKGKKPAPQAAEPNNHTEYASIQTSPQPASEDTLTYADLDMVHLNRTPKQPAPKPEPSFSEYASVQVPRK

Row | binding result | Binder
25 | binds | B2
26 | binds | B3
27 | binds | B10
28 | binds | B11

The binders below were run against T5, hSIRPα domain 1 displayed on U2OS cells (Homo sapiens, UniProt P78324) in the same assay as above. Details: one partner purified.
T5 construct: signal-regulatory protein α (SIRPα), human, domain 1; also called hSIRPαD1; D1; source: U2OS, transiently expressing, on live cells
T5 sequence (P78324 whole entry, looked up, tested part not stated): as the sequence (P78324 whole entry, looked up, tested part not stated) above

Row | binding result | Binder
29 | binds | B1
30 | binds | B4
31 | binds | B5
32 | binds | B8
33 | binds | B9
34 | binds | B10
35 | binds | B12
36 | binds | B13

Each binder was assayed against T6, hSIRPβ1 displayed on U2OS cells (Homo sapiens, UniProt O00241) in the same assay as above. Details: one partner purified.
T6 construct: signal-regulatory protein β1 (SIRPβ1), human; source: U2OS, transiently expressing, on live cells
T6 sequence (O00241 30-398): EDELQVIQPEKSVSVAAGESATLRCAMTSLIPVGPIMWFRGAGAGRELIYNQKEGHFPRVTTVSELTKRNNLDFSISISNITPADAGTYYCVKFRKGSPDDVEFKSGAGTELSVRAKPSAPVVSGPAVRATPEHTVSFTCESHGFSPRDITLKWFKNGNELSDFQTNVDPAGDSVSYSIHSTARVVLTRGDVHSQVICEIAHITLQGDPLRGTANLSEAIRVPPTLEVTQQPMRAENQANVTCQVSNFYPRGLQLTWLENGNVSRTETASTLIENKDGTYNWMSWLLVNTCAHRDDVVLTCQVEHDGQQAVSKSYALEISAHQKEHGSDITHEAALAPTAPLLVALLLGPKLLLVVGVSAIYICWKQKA

Row | binding result | Binder
37 | binds | B1
38 | binds | B2
39 | binds | B3
40 | binds | B4
41 | binds | B9
42 | binds | B10
43 | binds | B11

What follows are binders tested against T7, hSIRPα domain 2 displayed on U2OS cells (Homo sapiens, UniProt P78324) in the same assay as above. Details: one partner purified.
T7 construct: signal-regulatory protein α (SIRPα), human, domain 2; also called hSIRPαD2; D2; source: U2OS, transiently expressing, on live cells
T7 sequence (P78324 whole entry, looked up, tested part not stated): as the sequence (P78324 whole entry, looked up, tested part not stated) above

Row | binding result | Binder
44 | binds | B3
45 | binds | B6
46 | binds | B7
47 | binds | B8
48 | binds | B11
49 | binds | B13

These binders were tested against T8, full-length hSIRPα on U2OS cells (Homo sapiens, UniProt P78324) in the same assay as above. Details: one partner purified.
T8 construct: signal-regulatory protein α (SIRPα), human, full-length, co-expressed with IRES-derived GFP; also called U2OS-hSIRPα; source: U2OS, stably expressing, on live cells
T8 sequence (P78324 31-504): as the sequence (P78324 31-504) above

Row | binding result | Binder
50 | binds | B1
51 | binds | B2
52 | binds | B3
53 | binds | B4
54 | binds | B5
55 | binds | B6
56 | binds | B7
57 | binds | B8
58 | binds | B9
59 | binds | B10
60 | binds | B11
61 | binds | B12
62 | binds | B13

The binders below were run against T9, recombinant hSIRPα (human, UniProt P78324) (assay: HDX-MS; hSIRPα with Nb S8, S33 or S36; methods not in the text shown). Details: both partners purified.
T9 construct: signal-regulatory protein α (SIRPα), human, recombinant extracellular portion; source: bought: Acrobiosystems
T9 sequence (P78324 31-373): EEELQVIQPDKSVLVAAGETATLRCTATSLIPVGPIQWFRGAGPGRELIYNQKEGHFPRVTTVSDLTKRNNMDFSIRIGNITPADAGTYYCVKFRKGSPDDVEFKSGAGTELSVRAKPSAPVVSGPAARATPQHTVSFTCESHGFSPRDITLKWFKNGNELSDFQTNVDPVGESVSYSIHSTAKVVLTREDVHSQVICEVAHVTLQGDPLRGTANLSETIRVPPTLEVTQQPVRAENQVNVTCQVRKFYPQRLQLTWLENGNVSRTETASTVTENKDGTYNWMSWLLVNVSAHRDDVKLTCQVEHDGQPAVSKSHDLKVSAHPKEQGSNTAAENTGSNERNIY

Row | binding result | Binder
63 | binds | B3
64 | binds | B11

These binders were tested against T10, biotinylated recombinant hSIRPα (extracellular portion) (Homo sapiens, UniProt P78324, biotin (Sulfo-NHS-LC-LC-Biotin)) (assay: BLI; Octet RED96e; biotinylated hSIRPα (5 µg/mL) immobilised on streptavidin biosensors; Nbs 0.625 nM to 320 nM in Octet buffer (PBS, 0.1% BSA, 0.02% Tween-20); association 240 s, dissociation 720 s; 1:1 model, global fit). Details: both partners purified.
T10 construct: signal-regulatory protein α (SIRPα), human, recombinant extracellular portion; also called biotinylated hSIRPα; signal-regulatory protein α; source: bought: Acrobiosystems
T10 sequence (P78324 31-373): as above

Row | binding result | Binder
65 | binds | B14

The binders below were run against T10, biotinylated recombinant hSIRPα … (assay: BLI; epitope binning: two consecutive association steps with different Nbs on recombinant hSIRPα). Details: both partners purified.

Row | binding result | Binder
66 | binds | B1
67 | binds | B3
68 | binds | B4
69 | binds | B9
70 | binds | B10
71 | binds | B11
